Reference: the supplement of paper PMC7125110
± gives the standard error. For part of these data: This sample holds only a part of the variants without activity.

B1: glmS ribozyme (parent)
chain: AUAAAAGCGCCAGAACUACAGAAAUGUAGUUGACGAGGAGGAGGUUUAUCGAAUUUUCGGCGGAUGCCUCCAAA

How the values were obtained:
Conditions in all cases: with glucosamine-6-phosphate
glucosamine-6-phosphate [1] = variants of: B1; experiment: kcat; higher = faster cleavage; RNA array
Procedure, shortened: (§1)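 Ribozyme variants carrying barcodes were transcribed in situ on sequenced MiSeq chips by E. coli RNA polymerase and tracked at 37 °C with a hybridised Cy3 probe. They were exposed to 40 μM to 10 mM glucosamine-6-phosphate in HEPES/KCl/Mg(OAc)2 buffer. kobs came from exponential decay fits of normalised per-tile medians, and kcat and KM from weighted Michaelis–Menten fits.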

glucosamine-6-phosphate [2] = variants of: B1; experiment: self-cleavage kobs at 160 uM GlcN6P; higher = faster cleavage; RNA array
Procedure, shortened: as §1

glucosamine-6-phosphate [3] = variants of: B1; experiment: KM; higher = weaker cofactor use; RNA array
Procedure, shortened: as §1

glucosamine-6-phosphate [4] = variants of: B1; experiment: self-cleavage kobs at 640 uM GlcN6P; higher = faster cleavage; RNA array
Procedure, shortened: as §1

glucosamine-6-phosphate [5] = variants of: B1; experiment: self-cleavage kobs at 2500 uM GlcN6P; higher = faster cleavage; RNA array
Procedure, shortened: as §1

glucosamine-6-phosphate [6] = variants of: B1; experiment: self-cleavage kobs at 10000 uM GlcN6P; higher = faster cleavage; RNA array
Procedure, shortened: as §1

glucosamine-6-phosphate [7] = variants of: B1; experiment: self-cleavage kobs at 40 uM GlcN6P; higher = faster cleavage; RNA array
Procedure, shortened: as §1

G41U C68U
kcat (glucosamine-6-phosphate [1]): 5.17e-05 ± 8.8e-06 s⁻¹ | self-cleavage kobs at 160 uM GlcN6P (glucosamine-6-phosphate [2]): < 1e-05 s⁻¹

G41A C71G
kcat (glucosamine-6-phosphate [1]): 0.000168 ± 7.8e-06 s⁻¹ | KM (glucosamine-6-phosphate [3]): 1080 ± 150 µM | self-cleavage kobs at 640 uM GlcN6P (glucosamine-6-phosphate [4]): 6.55e-05 ± 9.8e-06 s⁻¹ | self-cleavage kobs at 2500 uM GlcN6P (glucosamine-6-phosphate [5]): 0.000106 ± 2.1e-05 s⁻¹ | self-cleavage kobs at 10000 uM GlcN6P (glucosamine-6-phosphate [6]): 0.000154 ± 1.4e-05 s⁻¹

G40A U55C A64G
kcat (glucosamine-6-phosphate [1]): 4.82e-05 ± 7.4e-06 s⁻¹ | KM (glucosamine-6-phosphate [3]): 7420 ± 2400 µM

G40U U65A
kcat (glucosamine-6-phosphate [1]): 0.000363 ± 4.2e-05 s⁻¹ | KM (glucosamine-6-phosphate [3]): 735 ± 170 µM | self-cleavage kobs at 160 uM GlcN6P (glucosamine-6-phosphate [2]): 6.26e-05 ± 1.5e-05 s⁻¹ | self-cleavage kobs at 640 uM GlcN6P (glucosamine-6-phosphate [4]): 0.000191 ± 3.7e-05 s⁻¹ | self-cleavage kobs at 2500 uM GlcN6P (glucosamine-6-phosphate [5]): 0.000235 ± 6.9e-05 s⁻¹ | self-cleavage kobs at 10000 uM GlcN6P (glucosamine-6-phosphate [6]): 0.000352 ± 7e-05 s⁻¹

G40U U65C
kcat (glucosamine-6-phosphate [1]): 6.53e-05 ± 8.5e-06 s⁻¹ | self-cleavage kobs at 2500 uM GlcN6P (glucosamine-6-phosphate [5]): 6.94e-05 ± 1.5e-05 s⁻¹ | self-cleavage kobs at 10000 uM GlcN6P (glucosamine-6-phosphate [6]): 5.76e-05 ± 1.1e-05 s⁻¹

G40C A53G
kcat (glucosamine-6-phosphate [1]): 0.00206 ± 0.00018 s⁻¹ | KM (glucosamine-6-phosphate [3]): 2160 ± 310 µM | self-cleavage kobs at 40 uM GlcN6P (glucosamine-6-phosphate [7]): 4.19e-05 ± 1.7e-05 s⁻¹ | self-cleavage kobs at 160 uM GlcN6P (glucosamine-6-phosphate [2]): 0.000126 ± 3e-05 s⁻¹ | self-cleavage kobs at 640 uM GlcN6P (glucosamine-6-phosphate [4]): 0.000539 ± 0.00012 s⁻¹ | self-cleavage kobs at 2500 uM GlcN6P (glucosamine-6-phosphate [5]): 0.00115 ± 0.00032 s⁻¹ | self-cleavage kobs at 10000 uM GlcN6P (glucosamine-6-phosphate [6]): 0.00166 ± 0.00025 s⁻¹

G40C A53U
kcat (glucosamine-6-phosphate [1]): 0.00427 ± 0.00097 s⁻¹ | KM (glucosamine-6-phosphate [3]): 2570 ± 870 µM | self-cleavage kobs at 40 uM GlcN6P (glucosamine-6-phosphate [7]): 8.31e-05 ± 9.2e-06 s⁻¹ | self-cleavage kobs at 160 uM GlcN6P (glucosamine-6-phosphate [2]): 0.000241 ± 5.8e-05 s⁻¹ | self-cleavage kobs at 640 uM GlcN6P (glucosamine-6-phosphate [4]): 0.000607 ± 0.00011 s⁻¹ | self-cleavage kobs at 2500 uM GlcN6P (glucosamine-6-phosphate [5]): 0.00226 ± 0.00037 s⁻¹ | self-cleavage kobs at 10000 uM GlcN6P (glucosamine-6-phosphate [6]): 0.0035 ± 0.00035 s⁻¹

G40A A64C
kcat (glucosamine-6-phosphate [1]): 6.62e-05 ± 1.1e-05 s⁻¹ | self-cleavage kobs at 10000 uM GlcN6P (glucosamine-6-phosphate [6]): 5.19e-05 ± 1.5e-05 s⁻¹

G40A G41C A53G
kcat (glucosamine-6-phosphate [1]): 0.000315 ± 0.00011 s⁻¹ | KM (glucosamine-6-phosphate [3]): 3110 ± 1500 µM | self-cleavage kobs at 640 uM GlcN6P (glucosamine-6-phosphate [4]): 5.58e-05 ± 1.2e-05 s⁻¹ | self-cleavage kobs at 2500 uM GlcN6P (glucosamine-6-phosphate [5]): 0.000139 ± 3.1e-05 s⁻¹

G40U U69G
kcat (glucosamine-6-phosphate [1]): < 1e-05 s⁻¹ | KM (glucosamine-6-phosphate [3]): 1720 ± 260 µM | self-cleavage kobs at 40 uM GlcN6P (glucosamine-6-phosphate [7]): < 1e-05 s⁻¹ | self-cleavage kobs at 160 uM GlcN6P (glucosamine-6-phosphate [2]): < 1e-05 s⁻¹ | self-cleavage kobs at 640 uM GlcN6P (glucosamine-6-phosphate [4]): < 1e-05 s⁻¹

G41C C58U
kcat (glucosamine-6-phosphate [1]): < 1e-05 s⁻¹ | self-cleavage kobs at 40 uM GlcN6P (glucosamine-6-phosphate [7]): < 1e-05 s⁻¹ | self-cleavage kobs at 160 uM GlcN6P (glucosamine-6-phosphate [2]): < 1e-05 s⁻¹ | self-cleavage kobs at 10000 uM GlcN6P (glucosamine-6-phosphate [6]): < 1e-05 s⁻¹

G41U A53U
kcat (glucosamine-6-phosphate [1]): 0.00104 ± 0.00026 s⁻¹ | KM (glucosamine-6-phosphate [3]): 889 ± 390 µM | self-cleavage kobs at 40 uM GlcN6P (glucosamine-6-phosphate [7]): 9.28e-05 ± 2e-05 s⁻¹ | self-cleavage kobs at 160 uM GlcN6P (glucosamine-6-phosphate [2]): 0.000145 ± 2.2e-05 s⁻¹ | self-cleavage kobs at 640 uM GlcN6P (glucosamine-6-phosphate [4]): 0.000413 ± 8.1e-05 s⁻¹ | self-cleavage kobs at 2500 uM GlcN6P (glucosamine-6-phosphate [5]): 0.000697 ± 0.0001 s⁻¹ | self-cleavage kobs at 10000 uM GlcN6P (glucosamine-6-phosphate [6]): 0.00119 ± 0.00021 s⁻¹

G41A A42U
kcat (glucosamine-6-phosphate [1]): 0.000123 ± 4e-06 s⁻¹ | KM (glucosamine-6-phosphate [3]): 1440 ± 160 µM | self-cleavage kobs at 640 uM GlcN6P (glucosamine-6-phosphate [4]): 3.91e-05 ± 1.2e-05 s⁻¹ | self-cleavage kobs at 2500 uM GlcN6P (glucosamine-6-phosphate [5]): 7.77e-05 ± 1.3e-05 s⁻¹ | self-cleavage kobs at 10000 uM GlcN6P (glucosamine-6-phosphate [6]): 0.000108 ± 1.2e-05 s⁻¹

G40C U56G
kcat (glucosamine-6-phosphate [1]): 0.00124 ± 0.00014 s⁻¹ | KM (glucosamine-6-phosphate [3]): 1460 ± 280 µM | self-cleavage kobs at 40 uM GlcN6P (glucosamine-6-phosphate [7]): 3.52e-05 ± 6.5e-06 s⁻¹ | self-cleavage kobs at 160 uM GlcN6P (glucosamine-6-phosphate [2]): 0.000146 ± 2.1e-05 s⁻¹ | self-cleavage kobs at 640 uM GlcN6P (glucosamine-6-phosphate [4]): 0.000333 ± 3.5e-05 s⁻¹ | self-cleavage kobs at 2500 uM GlcN6P (glucosamine-6-phosphate [5]): 0.000869 ± 0.00011 s⁻¹ | self-cleavage kobs at 10000 uM GlcN6P (glucosamine-6-phosphate [6]): 0.00108 ± 9.7e-05 s⁻¹

G41A U55A
kcat (glucosamine-6-phosphate [1]): 6.65e-05 ± 1.1e-05 s⁻¹ | self-cleavage kobs at 160 uM GlcN6P (glucosamine-6-phosphate [2]): 4.67e-05 ± 1.4e-05 s⁻¹ | self-cleavage kobs at 640 uM GlcN6P (glucosamine-6-phosphate [4]): 6.66e-05 ± 1.1e-05 s⁻¹ | self-cleavage kobs at 2500 uM GlcN6P (glucosamine-6-phosphate [5]): 5.75e-05 ± 1.2e-05 s⁻¹

G40C U45C
kcat (glucosamine-6-phosphate [1]): 0.000403 ± 4.9e-05 s⁻¹ | KM (glucosamine-6-phosphate [3]): 2310 ± 570 µM | self-cleavage kobs at 640 uM GlcN6P (glucosamine-6-phosphate [4]): 0.0001 ± 2.5e-05 s⁻¹ | self-cleavage kobs at 2500 uM GlcN6P (glucosamine-6-phosphate [5]): 0.000195 ± 3.4e-05 s⁻¹ | self-cleavage kobs at 10000 uM GlcN6P (glucosamine-6-phosphate [6]): 0.000344 ± 6.4e-05 s⁻¹
